Laboratory results as given in paper PMC6546359.

T1: CsrA-Strep (Bacillus subtilis, UniProt P33911 1-74)
T1 sequence: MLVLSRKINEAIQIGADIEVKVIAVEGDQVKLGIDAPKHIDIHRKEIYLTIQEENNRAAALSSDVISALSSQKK

B1: RnaC (structured_RNA)
RNA: UAAGGCCGGCGCGAUACUCCCUAUAACAUCCUUUUCAGUAGAUUUCAUUAUCGUGCCGGUUUUCUCAUAUGCAAAGCAAUCCCGCCAAUCAGAUUGGCGGGGAUUUUAUAUUU
B2: RoxS (structured_RNA)
RNA: GUGAAAUUGAUCACAAACAAACAUUACCCCUUUGUUUGACCGUGAAAAUUUCUCCCAUCCCCUUUGUUGUCGUUAAGACAUAUGAAACCGCGCUUAUCCCGGCGCGGUUUCUUU
B3: FsrA (structured_RNA)
RNA: AUAGAGAGAAGCUACUCUCUGUUCCCCAACCCCUCUAUCAGAUCAAGAUCCGGAAAAAACUUGGCGCUACCCCCGCCAAGUUUUU

Molecular target: T1, CsrA-Strep
Assay: EMSA

Row | Binder | binding result
1 | B1 | no binding
2 | B2 | no binding
3 | B3 | no binding
